The values that follow come from publication PMC5383425, “Differential CLE peptide perception by plant receptors implicated from structural and functional analyses of TDIF-TDR interactions” (PLoS ONE, 2017).

Numbering of substitutions follows the chain as printed. Square brackets hold non-standard residues; d marks the D form. Ends that are not written are not given here. Hyp = O=C(O)[C@@H]1C[C@@H](O)CN1

What all share (assay): ITC; 0.5–1 mM peptide titrated into 10–40 μM ecdTDR; 25°C; 10 mM sodium citrate, 100 mM NaCl, pH 5.5; fitted to one set of binding sites; MicroCal Auto-iTC200
What all share (conditions): both partners purified
For orientation: Isothermal titration calorimetry measures the heat released or taken up as one component is titrated into another.

One assay concerns the target T1, ecdTDR G186A mutant (Arabidopsis thaliana, UniProt Q9FII5 30-642, G186A).
T1 construct: TDR/PXY of A. thaliana, extracellular domain, residues 30-642; source: High Five insect cells (baculovirus), secreted, purified as the wild type (Ni-NTA, size-exclusion chromatography)
T1 sequence (looked up): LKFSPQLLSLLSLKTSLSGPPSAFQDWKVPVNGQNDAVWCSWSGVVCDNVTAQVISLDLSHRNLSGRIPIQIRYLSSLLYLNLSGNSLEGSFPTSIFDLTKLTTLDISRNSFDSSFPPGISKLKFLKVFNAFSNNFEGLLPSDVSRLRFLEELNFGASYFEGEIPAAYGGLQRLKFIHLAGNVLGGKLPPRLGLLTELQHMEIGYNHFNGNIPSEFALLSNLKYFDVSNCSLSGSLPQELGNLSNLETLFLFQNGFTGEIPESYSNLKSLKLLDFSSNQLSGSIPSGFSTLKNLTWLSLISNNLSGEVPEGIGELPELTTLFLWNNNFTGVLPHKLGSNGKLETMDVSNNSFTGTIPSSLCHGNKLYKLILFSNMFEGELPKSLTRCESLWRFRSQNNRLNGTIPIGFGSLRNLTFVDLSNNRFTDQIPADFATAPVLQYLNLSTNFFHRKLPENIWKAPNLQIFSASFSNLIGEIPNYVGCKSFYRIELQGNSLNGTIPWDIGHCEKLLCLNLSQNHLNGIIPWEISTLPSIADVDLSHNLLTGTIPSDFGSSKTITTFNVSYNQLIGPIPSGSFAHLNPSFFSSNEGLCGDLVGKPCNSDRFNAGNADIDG

In assay [1] the target is T2, ecdTDR F279/F281 double alanine mutant (Arabidopsis thaliana, UniProt Q9FII5 30-642, F279 to alanine | F281 to alanine).
T2 construct: TDR/PXY of A. thaliana, extracellular domain, residues 30-642; also called F279A/F281A; source: High Five insect cells (baculovirus), secreted, purified as the wild type (Ni-NTA, size-exclusion chromatography)
T2 sequence (looked up): T1 sequence (looked up) with A157G, F250A, F252A

The next assay concerns the target T3, ecdTDR S162A mutant (Arabidopsis thaliana, UniProt Q9FII5 30-642, S162A).
T3 construct: TDR/PXY of A. thaliana, extracellular domain, residues 30-642; source: High Five insect cells (baculovirus), secreted, purified as the wild type (Ni-NTA, size-exclusion chromatography)
T3 sequence (looked up): T1 sequence (looked up) with S133A, A157G

B1: Tracheary Element Differentiation Inhibitory Factor (TDIF) peptide (peptide)
peptide: HEV[Hyp]SG[Hyp]NPISN
notes: TDIF, the 12-residue CLE peptide processed from CLE41 and CLE44 of A. thaliana; printed as HEV(Hyp)SG(Hyp)NPISN; numbers count on: the 12-residue peptide; CLE44 encodes the same peptide; also called wild type TDIF; wtTDIF; source: synthetic peptide (peptide 2.0)
As for B1, the binding result in the assay with ecdTDR G186A mutant and in the assay with ecdTDR S162A mutant was “binds” throughout. The “fold decrease in binding against wild-type ecdTDR” value in assay [1] was determined as 8.6 fold.
